Changes are numbered by the printed parent chain. In names and notes the source's numbering stands.
B1: Nanobody Sim9877 (rank 5), monomeric (monovalent format) (VHH)
VHH: QVQLQESGGGLVQAGGSLRLSCAASGYISSFPVMGWYRQAPGKERELVAAIGSGGITYYADSVKGRFTISRDNAKNTVYLQMNSLKPEDTAVYYCAVAGYNIGSYYYWGQGTQVTVSS
notes: source: E. coli BL21-DE3 (pET-26b), purified (protein A, Ni-NTA); not shown: V5, C-terminal, kept
B2: Nanobody Sim4784 (rank 7), monomeric (monovalent format) (VHH)
VHH: QVQLQESGGGLVQAGGSLRLSCAASGTISPPTYMGWYRQAPGKERELVASIGAGSNTNYADSVKGRFTISRDNAKNTVYLQMNSLKPEDTAVYYCAAIFGRLWYHLYWGQGTQVTVSS
notes: as for B1
B3: Nanobody Sim8619 (rank 1) with an R102A mutation (VHH)
VHH: QVQLQESGGGLVQAGGSLRLSCAASGSIFYIRGMGWYRQAPGKERELVAGIDVGAITYYADSVKGRFTISRDNAKNTVYLQMNSLKPEDTAVYYCAVWAYTAAGYTTVYAYWGQGTQVTVSS
notes: as the nanobody of m5 (Sim8619); the ROSA cell assay is told only for Fc fusions, nanobody variants are told as monomers from E. coli; also called R102A mutant; Sim8619 R102A
B4: Nanobody Sim8619 (rank 1), monomeric (monovalent format) (VHH)
VHH: B3 VHH with A102R
notes: as for B1
B5: MAS-related GPR family member X2 (MRGPRX2), endogenous on ROSA mast cells (receptor, human (endogenous in ROSA), UniProt Q96LB1 1-330, looked up)
chain: MDPTTPAWGTESTTVNGNDQALLLLCGKETLIPVFLILFIALVGLVGNGFVLWLLGFRMRRNAFSVYVLSLAGADFLFLCFQIINCLVYLSNFFCSISINFPSFFTTVMTCAYLAGLSMLSTVSTERCLSVLWPIWYRCRRPRHLSAVVCVLLWALSLLLSILEGKFCGFLFSDGDSGWCQTFDFITAAWLIFLFMVLCGSSLALLVRILCGSRGLPLTRLYLTILLTVLVFLLCGLPFGIQWFLILWIWKDSDVLFCHIHPVSVVLSSLNSSANPIIYFFVGSFRKQWRLQQPILKLALQRALQDIAEVDHSEGCFRQGTPEMSRSSLV
notes: MAS-related GPR family member X2 (MRGPRX2), a GPCR, endogenously expressed at high levels on the ROSA mast cell line; source: endogenous, on ROSA mast cells (immortalized mast cell line)
B6: human N-terminal FLAG-tagged MRGPRX2, on transfected HEK293T cells (receptor, UniProt Q96LB1 1-330, looked up)
chain: B5 chain
notes: MRGPRX2, human, N-terminal FLAG-tagged, in a pcDNA3.1 expression vector; also called FLAG-MRGPRX2; wild type MRGPRX2; source: HEK293T, transiently transfected (pcDNA3.1), on cells; not shown: FLAG, N-terminal, kept

Key:
Conditions in all cases: one partner purified
[1] = target: B6; experiment: flow cytometry on cells; monomeric nanobody or variant with V5 tag, 1-2 h at 4 °C, on HEK293T cells transfected with FLAG-MRGPRX2, FLAG-MC4R, FLAG-CXCR3 or empty vector; HBS + 0.1% BSA + 2 mM calcium; anti-V5-APC
[2] = target: T1, FLAG-MC4R, on transfected HEK293T cells (Homo sapiens (Human)., UniProt P32245); experiment: as above
T1 construct: source: HEK293T, transiently transfected, on cells
T1 sequence (P32245 whole entry): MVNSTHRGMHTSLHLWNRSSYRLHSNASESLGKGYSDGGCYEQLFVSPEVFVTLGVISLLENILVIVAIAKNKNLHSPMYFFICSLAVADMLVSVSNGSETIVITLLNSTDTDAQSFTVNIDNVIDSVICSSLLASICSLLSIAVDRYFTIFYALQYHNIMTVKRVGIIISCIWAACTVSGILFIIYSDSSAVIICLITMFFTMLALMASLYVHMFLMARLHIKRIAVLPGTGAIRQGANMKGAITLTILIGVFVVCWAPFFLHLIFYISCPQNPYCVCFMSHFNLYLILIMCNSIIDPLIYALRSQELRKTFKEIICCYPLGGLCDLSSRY

[3] = target: B5; experiment: flow cytometry on cells; dose response of nanobody on ROSA mast cells (100,000 cells per well), 30 min at 4 °C; anti-human IgG Fc-AF488; MFI; for Kd the non-specific signal was the MFI with Nb 60
[4] = target: T2, Nanobody Sim8619 (rank 1), human IgG1 Fc fusion; experiment: as above
T2 construct: (GGS)3 linker between the nanobody and the Fc; cloned into pFUSE-CHIg-hG1 with H435A in the Fc; also called Nb Sim 8619; source: Expi293F, transiently transfected, purified (protein A); not shown: Fc (human IgG1, H435A), C-terminal, kept

[5] = target: T3, Nanobody Sim9877 (rank 5), human IgG1 Fc fusion; experiment: as above
T3 construct: (GGS)3 linker between the nanobody and the Fc; cloned into pFUSE-CHIg-hG1 with H435A in the Fc; also called Nb Sim9877; source: Expi293F, transiently transfected, purified (protein A); not shown: Fc (human IgG1, H435A), C-terminal, kept

[6] = target: T4, Nanobody Sim4784 (rank 7), human IgG1 Fc fusion; experiment: as above
T4 construct: (GGS)3 linker between the nanobody and the Fc; cloned into pFUSE-CHIg-hG1 with H435A in the Fc; source: Expi293F, transiently transfected, purified (protein A); not shown: Fc (human IgG1, H435A), C-terminal, kept

[7] = target: T2, Nanobody Sim8619 (rank 1), human IgG1 …; experiment: flow cytometry on cells; nanobody-Fc at the indicated concentrations, 1 h at 4 °C, on HEK293T cells transfected with FLAG-MRGPRX2, MRGPRX2 E164A D184A or empty vector; HBS + 2% FBS + 0.05% BSA; anti-human Fc-AF647; non-specific signal from empty-vector cells
[8] = target: T3, Nanobody Sim9877 (rank 5), human IgG1 …; experiment: as above
[9] = target: T4, Nanobody Sim4784 (rank 7), human IgG1 …; experiment: as above

**Q.** Does B1 bind [1]?
**A.** Result: binds

**Q.** Does B2 bind [1]?
**A.** Result: binds

**Q.** Does B2 bind [2]?
**A.** Result: binds

**Q.** With B3 as the binder, how does the EC50 [3] read?
**A.** Its EC50 is 210 nM.

**Q.** Does B4 bind [1]?
**A.** Result: binds

**Q.** With B5 as the binder, how does the Kd [4] read?
**A.** Its Kd is 100 nM.

**Q.** And the Kd [5]?
**A.** The Kd was 20 nM.

**Q.** What about the Kd [6] of the same binder?
**A.** The Kd was 50 nM.

**Q.** For B6, which Kd [7] is on record?
**A.** Its Kd is 200 nM.

**Q.** And the Kd [8]?
**A.** Its Kd is 160 nM.

**Q.** What about the Kd [9] of the same binder?
**A.** Its Kd is 80 nM.

Reference: publication PMC13315262, “In silico discovery of nanobody binders to a G-protein coupled receptor using AlphaFold-Multimer” (Nature Communications, 2026)
